Data published in paper PMC6351176 (Molecular microbiology, 2018).
Residue numbers refer to the chain shown, from its start. Numbers in names are those of the source.

B1: purified DnaD winged helix domain, wild type (B. subtilis, amino acids 1-128) (domain or fragment, UniProt P39787 1-128, looked up)
chain: MKKQQFIDMQEQGTSTIPNLLLTHYKQLGLNETELILLLKIKMHLEKGSYFPTPNQLQEGMSISVEECTNRLRMFIQKGFLFIEECEDQNGIKFEKYSLQPLWGKLYEYIQLAQNQTQERKAEGEQKS
B2: purified DnaA domain I, wild type (B. subtilis, amino acids 1-82) (domain or fragment, UniProt P05648 1-82, looked up)
chain: MENILDLWNQALAQIEKKLSKPSFETWMKSTKAHSLQGDTLTITAPNEFARDWLESRYLHLIADTIYELTGEELSIKFVIPQ
B3: purified DnaD winged helix domain F51A (B. subtilis, amino acids 1-128) (domain or fragment, UniProt P39787 1-128, looked up)
chain: B1 chain with F51A
B4: purified DnaD winged helix domain I83A (B. subtilis, amino acids 1-128) (domain or fragment, UniProt P39787 1-128, looked up)
chain: B1 chain with I83A

Key:
cross-linking = biological target: the molecule itself; experiment: cross-linking
[1] = biological target: B1; experiment: cross-linking

Row | Binder | stoichiometry N (cross-linking) | also measured
1 | B1 | – | binding result (cross-linking): binds
2 | B2 | – | binding result [1]: binds
3 | B3 | 4 | –
4 | B4 | 4 | –
